Source: the DeepSol protein solubility set

Assay: soluble on expression in E. coli; label from the status in PepcDB or PDB records

Sequence | soluble on expression in E. coli
MMKQALRVAFGFLILWASVLHAEVRIVIDSGVDSGRPIGVVPFQWAGPGAAPEDIGGIVAADLRNSGKFNPLDRARLPQQPGSAQEVQPAAWSALGIDAVVVGQVTPNPDGSYNVAYQLVDTGGAPGTVLAQNSYKVNKQWLRYAGHTASDEVFEKLTGIKGAFRTRIAYVVQTNGGQFPYELRVSDYDGYNQFVVHRSPQPLMSPAWSPDGSKLAYVTFESGRSALVIQTLANGAVRQVASFPRHNGAPAFSPDGSKLAFALSKTGSLNLYVMDLASGQIRQVTDGRSNNTEPTWFPDSQNLAFTSDQAGRPQVYKVNINGGAPQRITWEGSQNQDADVSSDGKFMVMVSSNGGQQHIAKQDLATGGVQVLSSTFLDETPSLAPNGTMVIYSSSQGMGSVLNLVSTDGRFKARLPATDGQVKFPAWSPYLLEHHHHHH | soluble
MMLAISEIRKHPDGLSFDRLCDVKSMLLERDQQIIDIKAVKAVGNVRYDKGLYLLDYQLSYEVILPSSRSMVPVCLSEVQHIQELFIEATDLADKKELVEDNLVLVLDKDAINLEESIVDNILLAIPVQVLTEEEKKSKELPAGQNWAVLTEEDYQCLKEEKQKENNPFASLQGLFDE | not soluble
MMMGEVQSLPSCGLHPRLLDALTLALAARPQEKAPGRYELQGDNVFMNVMQLTTQMPAEKKAELHEQYIDIQLLLTGVERIAFGMSGAARQCEEMHVEEDYQLCSQIVDEQTITLQAGMFAVFMPGEPHKPGCAVGEPDDIKKVVVKVRASLLAA | not soluble
MMPPLTKIEVLAKRVMEGAQLKTHKYFRIAVPHAITGQQLIALVLERGAPDDEAEASHLASLLLHHGYMFPVIEHGQPFKDDGTLYRLQRPYFWPSQAELVPDVEYAIYLNKRLLRNEQKHGLEEDEVESFNRLADVLAHMWAFIVQQSELQLKQQKEKKKVDKVVFDSEERAFWKIRKPSRGGPNFLEDPYMKIEKKIRRQNAQGYRCLMDRLRFAIKTKPWLKALKASDTMVTWVDQRAEFDPFLHPPQPSNPWISDEASFWNQPTDTSSAEIPTEKRVKRWGLSVQELVKDPIGRQVLETFLESEFSSENIRFWIAIQDLKYAPNEQIYQKAERIREEFLAQGAPAQVNVDNRTLDQTLECISKAKDASQMRFAFYHSEEHVFTLMAKDSYPRFVRSQIYKAVLTAAQQHGTKRLGWRNFVFNMGTTKKPATSKPAKPQDSIGTGQVLPKQLSSDSLPVRQAHGVKPDPE | not soluble
MMPRMGPPAAARQDNPLHVSFRNPQWPPNFINKDNVLDYFCNQANAFYEMNSCNQQIRMQNIVNRTVEECLRTMPGIQYVLWYSQPPLFIICKQRRNNVTNVSPIAYYYVINGSVHQAPDMYSLVQSRLLGALEPLRNAFGEVTNYSRYNTAKGYYWEFKNKPNVKKREEEKKEDEEEKLEDRSTNFQKTRTMMLLNQLFSEMPAEDALEREEKEEVEEEEEETLKTEEPTTSTDEPKFAEPTARTTSKQ | not soluble
MMQYMLLFSRQGKLRLQKWYTAYPDKQKKKICRELITQILARKPKMCAFLEYKDLKVVYKRYASLYFCCAIEQNDNELITLEVIHRYVELLDKYFGSVCELDIIFNFEKAYFILDEFLLAGEIQETSKKQVLKAIAAQDLIQEEETPQGFFEDHGLG | not soluble
MMRGGMGNMQKMLKQMQKMQKEMQKAQEELAEKTVEGTAGGGMVTVVANGHKQILEVKIKEEVVDPDDIEMLQDLILAATNDALKKADELANEMMGQFTKGLNIPGLF | not soluble
MMRSLLSHPQPSHAIRSPAAACALALFLSGCQSLGTDGLTASNAPAEISGPAASAIAGDMVGRLAEQIGPGTATVSLKQDNSPFGQALEAALKGWGYAVVTDQKTDGVSRIVPLAYVVIPFEGQVLTRLSTNSIELGRAYIVTTSGAQPASALAVMKRGLEHHHHHH | not soluble
MMSIFSVQTGSLVGTVHRYVKQPRQSWAYPIKQKSQTGTDNTKSALTLEKFTKPLTRKFSHDTICRKAPFVGVELQKPSATLTIMGKVHRQRQE | not soluble
MMSMIEKLKKFTQIPGISGYEERIREEIIREIKDFADYKVDAIGNLIVELGEGEERILFMAHMDEIGLLITGITDEGKLRFRKVGGIDDRLLYGRHVNVVTEKGILDGVIGATPPHLSLERDKSVIPWYDLVIDIGAESKEEALELVKPLDFAVFKKHFSVLNGKYVSTRGLDDRFGVVALIEAIKDLVDHELEGKVIFAFTVQEEVGLKGAKFLANHYYPQYAFAIDSFACCSPLTGDVKLGKGPVIRAVDNSAIYSRDLARKVWSIAEKNGIEIQIGVTGGGTDASAFQDRSKTLALSVPIKYLHSEVETLHLNDLEKLVKLIEALAFEL | soluble
MMSSNQQPVVLGKLGSCHGIKGWLKITAYTDSVEGIFDYSPWLIKENGEWREVKVIQWRYQGKAVVAELEGVTTRERAQMLTNCEIGILPQQMNALPEDEFYWRDLIGCEVINTTGYNMGIVDQIVETGSNDVLLVKANAKDSFGKVERMVPFVPGQFILKVDVQGKQILVDWDPDFLEHHHHHH | soluble
MMTMWVFGYGSLMWNPGFPVARRELATLSGWSRSFCMSSIHHRGTEEKPGLVLALDAVHNARCRGIAFAVEPGHEARTLDELRERELISSAYLERELEIDLDIGERVCAVTYVIDPHHEQYCGGMPLERQAQIIATAIGGRGPNTEYLYNTAAHLAEIGLGDPDLDWLSARVREITSLEHHHHHH | soluble
MNAHDEVQRTLNPTCTGTSVIALQYKTGVVVLTDRVVSYGKMARYKNVSRQYKVNDNVLIAFGGDHADFHWLQNVIERQVLLWKRFDQDIGPKALHGYLTSLLYAKRCKMNPVWNTLVVAGVEEEEKNNKETSTPFIGVITQKGCAYQVKHIATGLGAFLLNQAVEDEWRKKGEDLSREEAEAVLRKSLELTLYHDCVADNEFEIGRVDATEGVVLGKEEKIIGDWSIAETNCQYE | not soluble
MNAPLRFGPYAVSRFVDGVYKAPVGHLIHRQGAVALAAVVAGLEGETVDMDVNCFALSGPDGVWLIDAGCGTAWGAAYGHARAAMLAAGIQPDDVSRVILTHIHGDHALGLIDGDRPYFPNAEIWVPEADLAFFTNADARKTLPPARQGGFDLAARLLDICGAMLRPIPTGTVAEDIEAIAMPGHTPGHMGYLIGSGDARLLLWGDVLHVGELQAADPEIAFVYDIDSELAYATRLAALAEAADHGWLVSGGHLGGFFHIERRGDSFRFVPQPG | not soluble
MNASSRTKPAIDLNKVPPIDHHRTAVTFNCLIMKMTEMLNNFGNKMEDILEKAEQSLDTADRKLRLMESKLAGMSLEDKSTTATPSSAPEIDEIHESNPSSSQIVEETVEEKPEEHTTTVLIKDDPAYSKYFKMLKLGVLEAGVIQKMKSEGVDPSILKRGDEPSRPQAQTSRNYESSGESTASFSDSD | not soluble
MNDEDSEERRHHPKVPRLARQSHPEPPGPSSSTSSTPLFTDPTIHTILDQIGQRLASFSESDVKRIKNYLSTVTVTQEACVLLLLPNKEREKLMFAEIERHILENYEYSMIIHRYVNDVLKHAIETQFVNPDKLDESNDAWKDGLKMISEQKMRSSRYTAARARSQRFAIANDSYFPRPEIVPSTDHPVFASRPSVSTQEVRTGRQQIDQEVSGRKREFHGKLIPITGVVEEPSVRINAELQQSETQQIGDSSDQTDTATPISDIATHQDPENEISPSVTEGSNDIADDAGAGDDFSESTTGAVQPEQQASEHSNSEGVEKSSCAESLKEQPDQSSPAVSNTVSENSNTDSEICSGIDQNPNSDNLESTIDVGEPLRNTSDQPSPDPCSDVQIGVNSTTKQSTDPSVNVQLGHKSSDQPSTDPSAHAQLEDNCTIQPSTDPSSNDQLGDNTSDQNSTDPSSDVPMEDPGESGSAASTPPPDWDVAEVPIPQCSGHSDGNIGGTNEVTPPEQEAQVLAPRRSERSRIKNIWLSRDEVERLRYEFVPPPSRKDIPKCTAKKPEAEIPNVEPESSSTVESQRDEDQAVASASSVAEPLEEATTTSVPEPTEFQLSRDIYSTVKPTDEAHSPPIQAQPKKKATPRRKKADDVETVVADGTATIPKPKRKRPPRKKPEPKPNIVFETTPNPPTESFAANNNFQQFQFQNQPGSWTYNNGFGNGYGYGGGTTGYMDNLVGRGFDTVSQQPGFQNQGYEFTGLPANNSNNFPFL | not soluble
MNDFSLELPVRTNKPRETGQSILIDNGYPLQFFKDAIAGASDYIDFVKFGWGTSLLTKDLEEKISTLKEHDITFFFGGTLFEKYVSQKKVNEFHRYCTYFGCEYIEISNGTLPMTNKEKAAYIADFSDEFLVLSEVGSKDAELASRQSSEEWLEYIVEDMEAGAEKVITEARESGTGGICSSSGDVRFQIVDDIISSDIDINRLIFEAPNKTLQQGFIQKIGPNVNLANIPFHDAIALETLRLGLRSDTFFLLEHHHHHH | not soluble
MNDIEAAFHQYFEIIDADTPELLKTVFDLRYRILCVHNVIPGFDTNNYPNELESDQYDSHSIHFLLRHRPTNTFIGTTRLILPNPLDPMDKFPTELNTHFYPGFVLDSSSRKHTTEVSRFAILSDFFKRKGERNMLSQSTEIGCKAQERRRFPHPMLGLVVGLIQLCARNNIYHLISAMEPALNKLLGFYSLQMNPIGPPADYHGLRTPYYLYLPDLLDRMYQDHRSLWELITDHGRIWPMNLACIHQKTLKTAYTDNVYISE | not soluble
MNDLKSKSNIKLMKRVLTTYELRKYLKKYFCLTLDNYLVLAYLDVFKNDEGKYFMRDIISYIGIDQSRIVKSVKDLSKKGYLNKCRDPHDSRNVIIVVSVKQHNYIKNLLSEININET | not soluble
MNDNAFTFQTLHPETIMDALFEQGIMVDSGLTPLNSYENRVYQFQDEDRRRFVVKFYRPERWSVDQIREEHQFALELVKDEVPVAAPLAFNGQTLLAHQGYHYAIFPSVGGRQFEADNIDQMEAVGRYLGRLHQTGRKRPFTFRPDIGLAEYLFEPRQVFEDAALIPSGQKAAFLKATDTLLSAVTECWRTDFATLRLHGDCHAGNILWRDGPLFVDLDDARNGPAIQDLWMLLNGDKAEQRMQLETIIEAYEEVSEFDTAEIGLIEPLRAMRLVYYLAWLIRRWGDPAFPKNFPWLTGEDYWQRQTTTFIEQTKILHEPPLQLTPMYLEHHHHHH | not soluble
MNDNLYSLIEQRILVLDGAMGTMIQRHGLDEQDYRGERFASHDHPLKGNNDLLVITRPDIIRSIHCDFLDAGADIIETCTFNANPISQSDYQLQDLTRELNVAAAKIARSAADEFTAKTPDKPRFVAGSIGPTNKTLSLSPDVNNPGFRAVTFQEMVDNYTAQLEGLHEGGVDLLLVETVFDTLNCKAALYAIEEYAVKTGWQVPVMVSGTVVDASGRTLSGQTTEAFWISISHMPSLLSVGLNCALGSKQMRPFIEALSNIAESYVSVYPNAGLPNEFGEYDDSPEYMAAQIAGFAESGFVNIVGGCCGTTPTHIRAIAEAVKTLPPRKRPANKHVLRLSGLEPLVVDETTGFINVGERTNVTGSRKF | not soluble
MNDRARELASRLIRNFNEASLEHEVREPLYESAAARLGTGTVAHKLGASVDVVAPGKRSCPYHFHHAQEEMFVIIEGEGSLRVAGEMLPIKTGDVLFIPAGPEYPHQIINTSQAPLKYLSISTRETPEVCEYPDSGKYQAMVSANGARVFTANQRTTENVDYWDGEPLEHHHHHH | soluble
MNDTAGELEFVPLAANDDETVGQWLDLMALAAETGPRAAPPCNVDMVGSLRFAPPATALDDWVVRSGGRVVGALRLALPDGAPTARVDQLLVHPGRRRRGIGRALWAHARELARKHDRTTLTATVVESLPSGPAQDPGPAAFAAAMGAHRSDIPAGTHQWLDLDRHDPLADGVPAVPAGYSLVTWGTITPDEYAVPVSELELSLGAGPVDRAAQEVRTSYARQFETMRVGRGRRAYHTGAVHDATGALAGYTSVSKTTGNPAYALQGMTVVHREHRGHALGTLLKLANLEYVLRHEPEVRLVETANAEDNHPMIAVNAALGFEPYDRWVFWTAEAGPSD | soluble
